B1: 7-269 expressed as recombinant IgG (antibody, V domains shown)
VH: QMQLVESGGGVVQPGRSLRLSCAASRFDFNRFGMHWVRQAPGKGLEWVAYMSYDGGDRYYADSVKGRFTISRDNSKSTLHLQMDSLRPEDTAVYYCAKDDILGDCSTSHCYWGYYYQGMDVWGHGTTVTVSS
VL: EIVMTQSPDTLSVSPGERVTLSCRASQSVGSNLVWYQQKPGQSTRVLIYGASTRAATVPARFSGGGSGTEFTLTISSVQSEDFAVYYCYHYNNWPRGSFGQGTKLEIK
B2: BG18 IgG (antibody, V domains shown)
VH: QVQLRESGPGLVKPSETLSLSCTVSQDSRPSDHSWTWVRQSPGKALEWIGDIHYNGATTYNPSLRSRVRIELDQSIPRFSLKMTSMTAADTGMYYCARNAIRIYGVVALGEWFHYGMDVWGQGTAVTVSS
VL: SSELTQPPSVSVSPGQTARITCSGAPLTSRFTYWYRQKPGQAPVLIISRSSQRSSGWSGRFSASWSGTTVTLTIRGVQADDEADYYCQSSDTSDSYKMFGGGTKLTVL
B3: 10-1074 IgG (antibody, V domains shown)
VH: QVQLQESGPGLVKPSETLSVTCSVSGDSMNNYYWTWIRQSPGKGLEWIGYISDRESATYNPSLNSRVVISRDTSKNQLSLKLNSVTPADTAVYYCATARRGQRIYGVVSFGEFFYYYSMDVWGKGTTVTVSS
VL: LSVALGETARISCGRQALGSRAVQWYQHRPGQAPILLIYNNQDRPSGIPERFSGTPDINFGTRATLTISGVEAGDEADYYCHMWDSRSGFSWSFGGATRLTVL

Target: YU2 gp120 (HIV-1 clade B, isolate YU2, UniProt P35961)
Test: ELISA

YU2 gp120, sequence (P35961 whole entry, looked up): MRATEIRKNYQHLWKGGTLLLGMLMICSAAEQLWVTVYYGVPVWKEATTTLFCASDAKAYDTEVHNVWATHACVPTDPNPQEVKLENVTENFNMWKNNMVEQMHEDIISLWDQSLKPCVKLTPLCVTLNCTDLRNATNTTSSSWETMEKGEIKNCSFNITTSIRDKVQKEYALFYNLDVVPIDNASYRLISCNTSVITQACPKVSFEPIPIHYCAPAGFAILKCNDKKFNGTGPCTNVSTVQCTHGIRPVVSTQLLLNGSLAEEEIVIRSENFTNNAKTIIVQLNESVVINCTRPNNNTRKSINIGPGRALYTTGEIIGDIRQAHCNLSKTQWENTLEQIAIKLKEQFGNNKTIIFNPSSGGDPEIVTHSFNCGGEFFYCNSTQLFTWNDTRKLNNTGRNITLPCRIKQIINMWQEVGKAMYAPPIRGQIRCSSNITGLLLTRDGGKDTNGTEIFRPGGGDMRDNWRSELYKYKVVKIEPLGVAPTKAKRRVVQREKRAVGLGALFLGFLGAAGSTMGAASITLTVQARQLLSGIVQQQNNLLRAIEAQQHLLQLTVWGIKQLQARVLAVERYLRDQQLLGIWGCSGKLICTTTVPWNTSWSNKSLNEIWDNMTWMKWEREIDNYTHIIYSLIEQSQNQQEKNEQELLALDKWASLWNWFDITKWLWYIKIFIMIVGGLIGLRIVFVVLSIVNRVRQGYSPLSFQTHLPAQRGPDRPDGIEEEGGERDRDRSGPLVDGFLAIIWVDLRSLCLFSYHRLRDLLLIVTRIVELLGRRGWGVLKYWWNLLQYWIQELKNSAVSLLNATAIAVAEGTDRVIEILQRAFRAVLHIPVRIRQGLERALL

Binder | binding result
B1 | binds
B2 | binds
B3 | binds
